Square brackets hold non-standard residues; d marks the D form. pY = N[C@@H](Cc1ccc(OP(=O)(O)O)cc1)C(=O)O

This is an account of results in paper PMC10065799, “High-throughput profiling of sequence recognition by tyrosine kinases and SH2 domains using bacterial peptide display” (eLife, 2023).

The target of experiment [1] is T1, c-Src kinase domain (Homo sapiens, UniProt P12931). As to the kind of experiment: ADP-Quest continuous fluorimetric kinase assay (Michaelis-Menten parameters and initial rates). In kind it is biochemical. The conditions noted are these: c-Src kinase domain 10 nM, 100 μM ATP, 37 °C, three to five replicates, error = standard error of global Michaelis-Menten fit. From the text: A fluorescence-based assay from Eurofins (ADP Quest) was used to measure the Michaelis-Menten kinetic parameters for phosphorylation of the consensus peptides by purified tyrosine kinase domains. In this assay, ADP production as a result of kinase activity is coupled to the production of resorufin, a fluorophore that emits signal at 590 nm. For all experiments, the assay reactions were set up as described in the provided assay kit protocol, in a 384 well plate format. The peptide solutions were serially diluted in 100 mM Tris, pH 8.0, and the kinases were diluted to 50 nM in buffer (10 mM HEPES, 100 mM NaCl, 1 mM TCEP, 5 mM MgCl2, 10% (v/v) glycerol). The final reaction mixtures contained 10 nM of kinase with 100 μM of ATP. […] Phosphorylation reaction progress was monitored by measuring fluorescence at excitation 530 nm and emission 590 nm every 2 min at 37 °C on a plate reader (BioTek Synergy Neo 2). The fluorescence units (RFU) were converted to μM ADP by comparison to a standard curve, and the initial rates were extracted from the linear regime of the reaction progress curves. Initial rates were also measured for samples containing each kinase but lacking a peptide substrate, to account for background ATP hydrolysis. This background rate was subtracted from the rates measured in the presence of peptide. […]

Experiment [2] concerns the target T1, c-Src kinase domain. In words: RP-HPLC assay to measure peptide phosphorylation kinetics. In kind it is biochemical. The conditions noted are these: purified peptide substrate. On the procedure:
To validate the enrichment scores observed in the c-Src screening data, the phosphorylation rates were measured in vitro with the purified catalytic domain of c-Src and synthetic 11-residue peptides derived from sequences in the pTyr-Var library. […] Reactions were initiated by adding 1 mM ATP. At various time points, 100 μL aliquots were removed and quenched by the addition of EDTA to a final concentration of 25 mM. Each time point sample was analyzed by analytical RP-HPLC, monitoring absorbance at 214 nm. Forty μL of each time point was injected onto a C18 column (ZORBAX 300 SB-C18, 5 μm, 4.6x150 mm). The solvent system used was water with 0.1% trifluoroacetic acid (solvent A) and acetonitrile with 0.1% trifluoroacetic acid (solvent B). […] The fractional product peak area was plotted as a function of reaction time, and the initial linear regime of this plot was fitted to a straight line to determine a reaction rate. Rates were corrected for substrate and enzyme concentration. Reactions were done in triplicate or quadruplicate.

Experiment [3] deals with human c-Src SH2 domain (residues 143-250) (human, UniProt P12931-1 143-250, biotin on the Avi tag (co-expression with the biotin ligase BirA)). As to the kind of experiment: fluorescence polarisation; competition: unlabeled phosphopeptide serially diluted against 30 nM fluorescent peptide and 240 nM (1.5 x KD) c-Src SH2; same buffer; 25 °C; cubic binding equation. The conditions noted are these: both partners purified.

The test system of the next experiment is FGFR1 kinase domain. In words: LC-MS assay of intact SHP2 protein phosphorylation. In kind it is biochemical, human. The conditions noted are these: SHP2 10 μM, kinase 1 μM, 1 hr, 37 °C, 2 to 3 measurements. As to the method: (§1) The same protocol used to express and purify SH2 domains, excluding co-expression of BirA and addition of biotin, was applied to the expression and purification of the SHP2 variants.
(§2) To pre-activate the kinases, 1 μM of each purified kinase domain was preincubated at 37 °C for 30 min in the same buffer conditions used in the kinase domain peptide display screen, with 1 mM ATP. The reaction of the kinase with SHP2 was initiated with the addition of 10 μM SHP2, and the mixture was incubated in 37 °C for 1 hr. To terminate the reaction, the mixture was quenched with 200 mM EDTA. The reaction mixture was diluted 3:2 in water and injected onto a BEH C8 column (Waters) on a UPLC-MS system (Xevo QToF, Waters). Reverse-phase liquid chromatography was carried out at 0.3 mL/min with solvents A (H2O, 0.1% (v/v) formic acid) and B (acetonitrile, 0.1% (v/v) formic acid). Proteins were eluted over a gradient of 5–95% B for 8.5 min. The protein peak on the chromatogram was deconvoluted using the MaxEnt1 algorithm from 32,000–65,000 Da with a resolution of 1 Da/channel over 30 iterations. Peaks were chosen according to the theoretical MW of the protein within a range of 5 Da, and integrated for the signal intensity.

Another experiment deals with Fyn kinase domain. As to the kind of experiment: LC-MS assay of intact SHP2 protein phosphorylation. In kind it is biochemical, human. The conditions noted are these: SHP2 10 μM, kinase 1 μM, 1 hr, 37 °C, 2 to 3 measurements. On the procedure:
as §1, §2

Broadly, the Km is the substrate concentration at which the rate is half of its maximum. On to “Ac-GAEEEIYGIFGAKKKG-NH2 [SrcTide (2014), previously reported c-Src consensus substrate (Deng et al., 2014)]”, for which, on c-Src kinase domain [1], the Km is 7 ± 3 µM and the kcat is given as 1.8±0.1 s^–1. With Ac-AGQEEYSAMRD-NH2 [HRAS-Y64], the “Phosphorylation Rate” value on c-Src kinase domain [2] was determined as 0.156 s⁻¹.

B1: ACTA1_Y171_YF phosphopeptide Ac-QPIFEG(pY)ALPHAG-NH2 (peptide)
peptide: Ac-QPIFEG[pY]ALPHAG-NH2
SMILES: CC[C@H](C)[C@H](NC(=O)[C@@H]1CCCN1C(=O)[C@H](CCC(N)=O)NC(C)=O)C(=O)N[C@@H](Cc1ccccc1)C(=O)N[C@@H](CCC(=O)O)C(=O)NCC(=O)N[C@@H](Cc1ccc(OP(=O)(O)O)cc1)C(=O)N[C@@H](C)C(=O)N[C@@H](CC(C)C)C(=O)N1CCC[C@H]1C(=O)N[C@@H](Cc1c[nH]cn1)C(=O)N[C@@H](C)C(=O)NCC(N)=O
notes: source: synthetic peptide (synthesized in-house, RP-HPLC purified)
For the molecule B1, the binding result in experiment [3] is reported as “binds”.

B2: ACTA1_Y171_A172G_YF phosphopeptide Ac-QPIFEG(pY)GLPHAG-NH2 (peptide)
peptide: Ac-QPIFEG[pY]GLPHAG-NH2
SMILES: CC[C@H](C)[C@H](NC(=O)[C@@H]1CCCN1C(=O)[C@H](CCC(N)=O)NC(C)=O)C(=O)N[C@@H](Cc1ccccc1)C(=O)N[C@@H](CCC(=O)O)C(=O)NCC(=O)N[C@@H](Cc1ccc(OP(=O)(O)O)cc1)C(=O)NCC(=O)N[C@@H](CC(C)C)C(=O)N1CCC[C@H]1C(=O)N[C@@H](Cc1c[nH]cn1)C(=O)N[C@@H](C)C(=O)NCC(N)=O
notes: as for B1
For the molecule B2, the binding result in experiment [3] is listed as “binds”.

B3: SHP2 wild-type: human full-length SHP2 (residues 1–526; C459E) (protein, UniProt Q06124 2-593, looked up, variant C459E)
Tyrosine-protein phosphatase …: TSRRWFHPNITGVEAENLLLTRGVDGSFLARPSKSNPGDFTLSVRRNGAVTHIKIQNTGDYYDLYGGEKFATLAELVQYYMEHHGQLKEKNGDVIELKYPLNCADPTSERWFHGHLSGKEAEKLLTEKGKHGSFLVRESQSHPGDFVLSVRTGDDKGESNDGKSKVTHVMIRCQELKYDVGGGERFDSLTDLVEHYKKNPMVETLGTVLQLKQPLNTTRINAAEIESRVRELSKLAETTDKVKQGFWEEFETLQQQECKLLYSRKEGQRQENKNKNRYKNILPFDHTRVVLHDGDPNEPVSDYINANIIMPEFETKCNNSKPKKSYIATQGCLQNTVNDFWRMVFQENSRVIVMTTKEVERGKSKCVKYWPDEYALKEYGVMRVRNVKESAAHDYTLRELKLSKVGQGNTERTVWQYHFRTWPDHGVPSDPGGVLDFLEEVHHKQESIMDAGPVVVHESAGIGRTGTFIVIDILIDIIREKGVDCDIDVPKTIQMVRSQRSGMVQTEAQYRFIYMAVQHYIETLQRRIEEEQKSKRKGHEYTNIKYSLADQTSGDQSPLPPCTPTPPCAEMREDSARVYENVGLMQQQKSFR
As to B3, the “phosphorylation of intact SHP2 by FGFR1” value in the experiment with FGFR1 kinase domain is “fastest”. Further, in the experiment on Fyn kinase domain, the “phosphorylation of intact SHP2 by Fyn” value is given as “slowest”.
